Experiments:
stz-treated mice = details: systemic BMP-7; cited from earlier work
nude rat (RNU) grafts = assay: Local BMP-7 delivery to hNEPT or PR2Y1+/ALK3+ cells under kidney capsule of nude rats; type: in vivo; details: POD +21
Source text: The nude rat (RNU, Crl:NIH-Foxn1^rnu) is chosen over mice due to the specific BMP-7 local delivery system designed for this purpose, requiring surgical procedures for which a larger animal size would be beneficial. […] The kidney sub-capsular space of rodents is a well-established ectopic site for pancreatic cell (and particularly islet) transplantation^54,55. There are reports of success in the continuous delivery of compounds to pancreatic cells previously implanted under the kidney capsule of rats^38 using Alzet® osmotic pumps that release solution at a rate of 0.5 μl/h for 2 weeks.
While exocrine and endocrine cells coexist in the pancreas, cultured hNEPT lack native ECM for proper compartmentalization, and acinar secretions may be harmful for endocrine cells^37. Acinar cells present in hNEPT after BMP-7 treatment persist in grafts^17. This observation was hypothesized to be one reason behind the sub-optimal performance of BMP-7-treated hNEPT in vivo (see Example 2). […] The first phase of these studies transplants unfractionated hNEPT (0.5-1×10^7 cells) previously grown for 48h in attachment (prior to BMP-7 treatment) under the kidney capsule of nude rats. […] Rats are euthanized at POD +21 and their grafts analyzed by IF for C-peptide as well as the 15 pancreatic marker panel of Example 8. […]

hNEPT = hNEPT culture exposed to BMP-7: cluster/colony formation and DNA content; type: cell-based, human
Procedure: Fresh hNEPT preparations were allowed to attach to tissue culture-treated plates for 48 h and subsequently exposed to BMP-7. The rationale behind the use of BMP-7 was that it may help reduce the incidence of EMT in cultured pancreatic exocrine tissue, as EMT has proven an obstacle for the formation of endocrine cells from exocrine cells in a similar setting^7. Control aliquots were cultured in the same conditions but without BMP-7. […] The growth of the colonies in the BMP-7 group was followed by in situ live cell imaging (Incucyte Zoom) (FIG. 1b and FIG. 8). This increase in size was paralleled by an average increase of 4.8-fold in DNA content from the time of attachment to day 12 (n=2), which further evidenced active cell proliferation.
hNEPT culture: Human islets were isolated at the DRI's cGMP facility following methods already described54, and hNEPT samples (2-4 ml) were obtained as an isolation byproduct. […]
Real-time colony growth assessment: In order to observe the formation and growth of the colonies we used an IncuCyteZOOM EssenBiosciences instrument (Ann Arbor, Michigan) within a Symphony Incubator purchased from VWR (Atlanta Ga.). The cells remain in their own culturing flask or plate, where growth can be observed and quantified over time. […]

ALK3- fraction of hNEPT = assay: BMP-7 response of ALK3- fraction; type: cell-based, human; details: qRT-PCR
Procedure: Magnetic bead-based methods (Miltenyi) were used for the enrichment of ALK3+ cells from hNEPT. Both enriched and negative fractions are subsequently plated and treated with BMP-7 or left untreated (controls).
The identity of sorted cells is confirmed by IF, and aliquots are cultured in adherent conditions. Single sorted pancreatic cells are notoriously difficult to culture in plastic, which is addressed by using a combination of Matrigel®-coated plates and fully defined media [STEMPRO® (Thermofisher Scientific, Grand Island, N.Y.) or Kubota's Medium® (PhoenixSongs Biologicals Branford, Conn.)]^8,29,48,49 Matrigel® is used to grow multipotent pancreatic cells^50,51. Colonies from dissociated ALK3^+ cells sorted from fresh hNEPT are readily grown in these conditions, and resemble those obtained from the MPD without sorting. The typical “ring” morphology described by others^50,51 is observed when plating ALK3^+ cells in 3D conditions or fibroblast feeder cells.

B1: BMP-7: 35 kDa homodimeric protein of the TGF-β superfamily; FDA-approved agent; human mature chain SEQ ID NO:1/2 (protein, listed as Homo sapiens)
chain: IRSTGSKQRSQNRSKTPKNQEALRMANVAENSSSDQRQACKKHELYVSFRDLGWQDWIIAPEGYAAYYCEGECAFPLNSYMNATNHAIVQTLVHFINPETVPKPCCAPTQLNAISVLYFDDSSNVILKKYRNMVVRACGCH
modifications: homodimer; human mature chain of BMP-7 (NCBI Reference Sequence NM_001719.2) comprising peptide from 293-431
For B1, the “effect on hyperglycemia of stz-treated mice” value (stz-treated mice) is listed as “corrected the hyperglycemia”, the “islet-like structures within the graft” value (nude rat (RNU) grafts; PR2Y1+/ALK3+ cell graft, BMP-7 by iPRECIO pump) is listed as “abundant islet-like structures within the graft” and the “in vivo β-like cell formation compared to controls” value (nude rat (RNU) grafts; unfractionated hNEPT graft, BMP-7 by pump for 14 d) is listed as “Substantial in vivo β-like cell formation”. The “formation of cellular clusters” value (hNEPT; 100 ng/ml BMP-7, course of 12 days, controls became mesenchymal-like monolayers) was “induced the formation of abundant cellular clusters”, the “average increase in DNA content from the time of attachment to day 12” value (hNEPT; BMP-7 group, n=2) was 4.8 fold and the “response to BMP-7” value (ALK3- fraction of hNEPT) was “did not show any response”.

Source: patent US11466255B2, “Methods and compositions for converting non-endocrine pancreatic tissue into insulin-producing cells” (UNIVERSITY OF MIAMI, priority 2015, dated 2022)
